Laboratory results as given in US20030044914A1 (SALK INSTITUTE FOR BIOLOGICAL STUDIES, published 2003).

What was measured:
hRARα = target: T1, hRARα (human, UniProt P10276 1-462); assay: in vitro DNA-binding (gel shift) with in vitro translated proteins and a cocktail of response elements
T1 construct: also called human RAR alpha
T1 sequence (looked up): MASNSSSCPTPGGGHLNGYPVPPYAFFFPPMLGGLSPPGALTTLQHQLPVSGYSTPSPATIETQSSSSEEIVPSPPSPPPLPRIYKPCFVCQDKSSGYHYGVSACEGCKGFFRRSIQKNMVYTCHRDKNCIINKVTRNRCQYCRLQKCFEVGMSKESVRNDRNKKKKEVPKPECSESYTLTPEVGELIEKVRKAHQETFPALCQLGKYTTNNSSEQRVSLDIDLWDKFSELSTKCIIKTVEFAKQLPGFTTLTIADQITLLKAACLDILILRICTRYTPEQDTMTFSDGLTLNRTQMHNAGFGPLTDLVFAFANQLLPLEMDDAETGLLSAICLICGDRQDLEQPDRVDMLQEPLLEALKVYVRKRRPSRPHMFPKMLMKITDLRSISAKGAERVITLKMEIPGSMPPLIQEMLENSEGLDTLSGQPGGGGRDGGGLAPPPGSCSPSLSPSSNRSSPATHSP

hRXRα = target: T2, hRXRα (human, UniProt P19793 1-462); assay: in vitro DNA-binding (gel shift) with in vitro translated proteins
T2 construct: In vitro transcribed and translated protein used in gel shift assays with XOR-6; also called human RXR alpha
T2 sequence (looked up): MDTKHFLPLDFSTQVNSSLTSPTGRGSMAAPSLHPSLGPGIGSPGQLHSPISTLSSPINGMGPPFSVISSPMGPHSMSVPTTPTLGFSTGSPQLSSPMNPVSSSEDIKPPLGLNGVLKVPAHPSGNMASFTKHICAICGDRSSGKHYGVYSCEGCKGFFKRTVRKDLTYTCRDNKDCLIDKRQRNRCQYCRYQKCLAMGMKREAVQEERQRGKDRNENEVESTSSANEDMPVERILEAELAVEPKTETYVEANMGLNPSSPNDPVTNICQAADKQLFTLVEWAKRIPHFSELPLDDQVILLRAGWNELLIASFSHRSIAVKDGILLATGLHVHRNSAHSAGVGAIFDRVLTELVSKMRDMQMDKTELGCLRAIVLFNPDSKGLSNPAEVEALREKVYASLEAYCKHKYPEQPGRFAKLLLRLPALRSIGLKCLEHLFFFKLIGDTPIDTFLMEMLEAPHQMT
Protocol: DNA-binding analysis was performed using in vitro transcribed, translated proteins (Perlmann et al., 1993, supra. oligonucleotides employed have been described previously (see Umesono et al., in Cell 65:1255-1266 (1990) and Perlmann et al., 1993, supra).
Thus, in vitro transcribed and translated proteins were mixed with a cocktail of hormone response elements containing DR0, DR1, PPRE, DR2, MLV-TRE, SPP1, and β-RARE. Thus, XOR-6 and hRXRα proteins were mixed and incubated with radiolabelled response elements. DR-1 through 5 are direct repeats of the sequence […] separated by 1-5 nucleotides. Reaction conditions and gel electrophoresis employed were as described by Perlmann et al., 1993, supra.

- binding result (hRARα): no binding
- binding result (hRXRα): binds
B1: XOR-6 (Xenopus Orphan Receptor 6) (receptor)
chain: MWKVQETLVLEEEEEEEDASNSCGTGEDEDDGDPKICRACGDRATGYHFNAMTCEGCKGFFRRAVKRNLRLSCPFQNSCVINKSNRRHCQACRLKKCLDIGMRKELIMSDAAVEQRRALIKRKHKLTKLPPTPPGASLTPEQQHFLTQLVGAHTKTFDFNFTFSKNFRPIRRSSDPTQEPQATSSEAFLMLPHISDLVTYMIKGIISFAKMLPYFKSLDIEDQIALLKGSVAEVSVIRFNTVFNSDTNTWECGPFTYDTEDMFLAGFRQLFLEPLVRIHRMMRKLNVQSEEYAMMAALSIFASYRPGVCDWEKIQKLQEHIALTLKDFIDSQRPPSPQNRLLYPKIMECLTELRTVNDIHSKQLLEIWDIQPDATPLMREVFGSPE
notes: Expressed from pCDG-XOR6 (XOR-6 protein coding region) in CV-1 cells; Full-length, about 386 amino acids; also called full-length XOR-6
